A word on the Kd: it is a measure of binding affinity in units of concentration. The low end stands for tighter binding, the high end for weaker binding.

For assay [1], the target named is T1, LRP6.E1-E2 fragment (biotinylated, His-tagged) (Homo sapiens (Human), UniProt O75581 19-644, biotinylated (AviTag system)).
T1 construct: BLI antigen from baculovirus-infected insect cells; also called LRP6 E1-E2 protein fragment; not shown: His tag and AviTag
T1 sequence: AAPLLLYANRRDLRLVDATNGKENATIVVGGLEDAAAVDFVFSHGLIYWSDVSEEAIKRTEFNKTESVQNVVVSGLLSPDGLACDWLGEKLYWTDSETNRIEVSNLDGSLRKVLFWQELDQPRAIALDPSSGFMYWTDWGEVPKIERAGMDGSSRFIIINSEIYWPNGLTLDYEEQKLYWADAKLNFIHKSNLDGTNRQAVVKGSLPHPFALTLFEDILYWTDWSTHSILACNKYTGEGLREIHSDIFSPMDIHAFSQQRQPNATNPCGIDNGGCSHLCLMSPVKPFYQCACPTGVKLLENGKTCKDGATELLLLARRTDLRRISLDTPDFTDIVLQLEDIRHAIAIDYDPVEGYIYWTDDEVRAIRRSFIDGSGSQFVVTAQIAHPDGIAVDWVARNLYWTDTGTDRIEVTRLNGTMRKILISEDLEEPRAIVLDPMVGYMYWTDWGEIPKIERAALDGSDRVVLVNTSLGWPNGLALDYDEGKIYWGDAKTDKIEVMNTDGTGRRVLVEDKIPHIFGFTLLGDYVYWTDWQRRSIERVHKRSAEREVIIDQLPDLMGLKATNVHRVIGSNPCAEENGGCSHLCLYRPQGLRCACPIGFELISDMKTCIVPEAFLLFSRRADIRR
The assay is described as follows: biolayer interferometry, immobilized LRP6 E1-E2 fragment; Wnt9b at 200 nM; association then dissociation phase. Here is the method: Biolayer interferometry was performed as previously described (Bourhis et al., 2010). Briefly, biotinylated, His-tagged LRP6 proteins were purified from baculovirus-infected insect cells using the AviTag system (GeneCopoeia). Binding kinetics were measured on the Octet RED System (ForteBio) using Streptavidin High Binding FA Biosensors loaded with 20 μg/ml LRP6 protein.
In these assays, antibody binding to LRP6 protein was allowed to reach equilibrium, and the subsequent wavelength shift in the interference pattern is shown for association and dissociation phases of Wnt protein binding.
A general note: In BLI a coated tip is dipped into the sample, and binding shifts an interference pattern.

In a further assay the target is LRP6.E1-E2-Fc (human). The experiment in a line: ELISA. (An ELISA detects its analyte on a solid surface through an enzyme-linked reagent.)
The target in the next assay is T2, LRP6.E3-E4-Fc (human).
T2 construct: also called LRP6.E3-4-Fc
The assay is described as follows: ELISA.

A further assay has as its target LRP6 on HEK293 cells (human, UniProt O75581 20-1613). The assay is described as follows: cell-based or functional assay.
Assay [2] addresses T3, LRP6 (human; form used in the assay not stated) (human, UniProt O75581 20-1253, limits assumed).
T3 construct: probably an E3-E4 fragment for SPR
T3 sequence: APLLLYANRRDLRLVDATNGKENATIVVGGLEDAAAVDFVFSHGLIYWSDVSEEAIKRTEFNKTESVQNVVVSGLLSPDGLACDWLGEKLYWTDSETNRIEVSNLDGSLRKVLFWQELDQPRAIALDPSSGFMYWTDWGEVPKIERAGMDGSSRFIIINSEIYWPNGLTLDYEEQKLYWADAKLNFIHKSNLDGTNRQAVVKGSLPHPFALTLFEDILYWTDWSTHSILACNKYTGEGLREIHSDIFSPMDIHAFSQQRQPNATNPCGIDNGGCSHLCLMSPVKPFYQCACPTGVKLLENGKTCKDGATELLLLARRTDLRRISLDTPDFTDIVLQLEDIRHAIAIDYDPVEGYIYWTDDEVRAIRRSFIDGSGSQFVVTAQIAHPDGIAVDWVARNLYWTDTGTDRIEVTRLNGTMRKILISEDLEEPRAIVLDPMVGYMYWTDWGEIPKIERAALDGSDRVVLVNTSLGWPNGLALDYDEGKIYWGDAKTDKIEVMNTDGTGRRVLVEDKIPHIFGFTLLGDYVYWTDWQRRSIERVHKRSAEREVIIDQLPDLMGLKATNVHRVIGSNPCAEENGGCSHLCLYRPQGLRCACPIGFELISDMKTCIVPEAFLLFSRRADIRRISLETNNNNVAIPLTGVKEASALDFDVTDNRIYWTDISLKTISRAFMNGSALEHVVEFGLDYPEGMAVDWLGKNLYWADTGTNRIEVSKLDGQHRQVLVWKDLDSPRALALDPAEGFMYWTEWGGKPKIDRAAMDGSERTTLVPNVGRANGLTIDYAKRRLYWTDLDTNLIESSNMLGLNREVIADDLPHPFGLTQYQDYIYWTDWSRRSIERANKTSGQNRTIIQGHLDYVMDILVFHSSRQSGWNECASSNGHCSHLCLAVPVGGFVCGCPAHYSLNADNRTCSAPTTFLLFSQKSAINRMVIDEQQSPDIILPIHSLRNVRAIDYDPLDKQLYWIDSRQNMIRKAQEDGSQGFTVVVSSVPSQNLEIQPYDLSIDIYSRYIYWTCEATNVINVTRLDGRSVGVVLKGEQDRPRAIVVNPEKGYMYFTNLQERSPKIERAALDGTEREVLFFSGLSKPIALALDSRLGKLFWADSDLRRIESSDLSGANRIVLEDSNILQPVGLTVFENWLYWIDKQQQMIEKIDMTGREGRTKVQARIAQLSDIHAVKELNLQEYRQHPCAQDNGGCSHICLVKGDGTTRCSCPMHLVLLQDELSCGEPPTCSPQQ
The assay is described as follows: SPR; LRP6 construct not stated; SPR.

The target of assay [3] is T3, LRP6 (human; form used in the assay not …). The experiment in a line: Scatchard analysis; format not stated; Scatchard analysis.

Where “and” joins values, the source holds several entries; their conditions need not be identical. Equal entries are not always repeated.

T2 sequence (chain, as listed by the source limits assumed): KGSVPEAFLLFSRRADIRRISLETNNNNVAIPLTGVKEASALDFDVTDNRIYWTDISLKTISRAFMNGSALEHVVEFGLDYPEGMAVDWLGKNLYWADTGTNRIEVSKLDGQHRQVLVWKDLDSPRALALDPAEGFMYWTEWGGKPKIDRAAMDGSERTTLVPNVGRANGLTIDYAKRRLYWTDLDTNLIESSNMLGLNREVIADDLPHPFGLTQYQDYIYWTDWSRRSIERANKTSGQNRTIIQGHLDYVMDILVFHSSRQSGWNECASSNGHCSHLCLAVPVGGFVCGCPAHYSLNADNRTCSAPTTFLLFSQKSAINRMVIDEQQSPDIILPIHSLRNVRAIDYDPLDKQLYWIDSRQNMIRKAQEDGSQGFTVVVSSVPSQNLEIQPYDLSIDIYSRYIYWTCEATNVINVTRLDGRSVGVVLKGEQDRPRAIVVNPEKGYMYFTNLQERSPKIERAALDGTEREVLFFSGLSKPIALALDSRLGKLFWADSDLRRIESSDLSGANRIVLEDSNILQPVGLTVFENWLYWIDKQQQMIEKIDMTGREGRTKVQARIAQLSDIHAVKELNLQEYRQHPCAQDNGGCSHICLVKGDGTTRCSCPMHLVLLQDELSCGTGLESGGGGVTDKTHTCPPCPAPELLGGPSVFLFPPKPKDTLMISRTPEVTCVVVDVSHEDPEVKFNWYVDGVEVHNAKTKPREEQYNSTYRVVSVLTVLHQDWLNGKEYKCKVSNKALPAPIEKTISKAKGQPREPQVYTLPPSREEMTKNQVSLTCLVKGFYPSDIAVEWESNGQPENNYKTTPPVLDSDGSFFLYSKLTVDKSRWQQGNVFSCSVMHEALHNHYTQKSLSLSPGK
LRP6.E1-E2-Fc (human), sequence (chain, as listed by the source limits assumed): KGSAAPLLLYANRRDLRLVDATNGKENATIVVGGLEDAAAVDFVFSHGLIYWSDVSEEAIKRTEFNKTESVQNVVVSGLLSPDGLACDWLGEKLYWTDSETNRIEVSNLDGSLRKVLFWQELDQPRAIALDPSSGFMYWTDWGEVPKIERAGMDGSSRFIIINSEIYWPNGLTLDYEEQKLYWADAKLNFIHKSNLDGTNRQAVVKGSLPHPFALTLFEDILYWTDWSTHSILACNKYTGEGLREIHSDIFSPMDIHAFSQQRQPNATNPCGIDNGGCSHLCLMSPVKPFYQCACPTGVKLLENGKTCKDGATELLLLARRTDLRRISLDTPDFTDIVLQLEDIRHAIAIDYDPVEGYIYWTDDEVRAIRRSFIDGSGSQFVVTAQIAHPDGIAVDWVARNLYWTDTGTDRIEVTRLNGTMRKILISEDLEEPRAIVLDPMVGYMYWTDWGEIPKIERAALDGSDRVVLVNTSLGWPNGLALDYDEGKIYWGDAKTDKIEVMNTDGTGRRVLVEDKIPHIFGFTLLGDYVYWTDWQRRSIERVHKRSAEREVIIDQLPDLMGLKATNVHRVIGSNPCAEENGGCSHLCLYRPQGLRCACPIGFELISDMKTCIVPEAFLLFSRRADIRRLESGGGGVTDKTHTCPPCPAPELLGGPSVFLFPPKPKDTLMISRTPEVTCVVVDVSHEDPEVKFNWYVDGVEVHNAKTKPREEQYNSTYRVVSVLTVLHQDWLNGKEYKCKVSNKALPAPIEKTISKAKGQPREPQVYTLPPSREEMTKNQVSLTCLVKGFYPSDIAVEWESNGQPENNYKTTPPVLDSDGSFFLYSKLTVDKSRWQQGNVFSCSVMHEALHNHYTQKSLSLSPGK

B1: Wnt9b (ligand, mouse, UniProt O35468 24-359, looked up)
chain: AAYFGLTGREVLTPFPGLGTAAAPAQAGAHLKQCDLLKLSRRQKQLCRREPGLAETLRDAAHLGLLECQFQFRQERWNCSLEGRTGLLQRGFKETAFLYAVSAAALTHALARACSAGRMERCTCDDSPGLESRQAWQWGVCGDNLKYSTKFLSNFLGPKRGSKDLRARADAHNTHVGIKAVKSGLRTTCKCHGVSGSCAVRTCWKQLSPFRETGQVLKLRYDTAVKVSSATNEALGRLELWAPAKPGGPAKGLAPRPGDLVYMEDSPSFCRPSKYSPGTAGRVCSRDSSCSSLCCGRGYDTQSRMVVFSCHCQVQWCCYVECQQCAQQELVYTCKR
notes: also called purified mouse Wnt9b
As for B1, the binding result in assay [1] is recorded as “binds”.

B2: YW211.31 antibody (antibody, human IgG1, kappa, V domains shown)
VH: EVQLVESGGGLVQPGGSLRLSCAASGFTFTSYYISWVRQAPGKGLEWVAEISPYSGSTYYADSVKGRFTISADTSKNTAYLQMNSLRAEDTAVYYCALRARPPIRLHPRGSVMDYWGQGTLVTVSS
VL: DIQMTQSPSSLSASVGDRVTITCRASQDVSTAVAWYQQKPGKAPKLLIYSASFLYSGVPSRFSGSGSGTDFTLTISSLQPEDFATYYCQQSYTTPPTFGQGTKVEIKR
notes: also called intact YW211.31 antibody
In the case of B2, the binding result in the assay with LRP6.E1-E2-Fc was “no binding”; in the assay with LRP6.E3-E4-Fc, “binds”. Also, in the assay with LRP6 on HEK293 cells, the “IC50, inhibition of signaling (Wnt luciferase reporter) in Wnt3a-stimulated HEK293 cells” value is ~1 ug/ml and ~6 nM. Also, the Kd is around 2 nM in assay [2] and around 0.6 nM in assay [3].

The record behind these values is patent US20110256127A1 (Genentech, published 2011).
